B1: ADP-ribosylation factor-binding protein GGA1 (Homo sapiens), Q9UJY5 (parent)
chain: MEPAMEPETLEARINRATNPLNKELDWASINGFCEQLNEDFEGPPLATRLLAHKIQSPQEWEAIQALTVLETCMKSCGKRFHDEVGKFRFLNELIKVVSPKYLGSRTSEKVKNKILELLYSWTVGLPEEVKIAEAYQMLKKQGIVKSDPKLPDDTTFPLPPPRPKNVIFEDEEKSKMLARLLKSSHPEDLRAANKLIKEMVQEDQKRMEKISKRVNAIEEVNNNVKLLTEMVMSHSQGGAAAGSSEDLMKELYQRCERMRPTLFRLASDTEDNDEALAEILQANDNLTQVINLYKQLVRGEEVNGDATAGSIPGSTSALLDLSGLDLPPAGTTYPAMPTRPGEQASPEQPSASVSLLDDELMSLGLSDPTPPSGPSLDGTGWNSFQSSDATEPPAPALAQAPSMESRPPAQTSLPASSGLDDLDLLGKTLLQQSLPPESQQVRWEKQQPTPRLTLRDLQNKSSSCSSPSSSATSLLHTVSPEPPRPPQQPVPTELSLASITVPLESIKPSNILPVTVYDQHGFRILFHFARDPLPGRSDVLVVVVSMLSTAPQPIRNIVFQSAVPKVMKVKLQPPSGTELPAFNPIVHPSAITQVLLLANPQKEKVRLRYKLTFTMGDQTYNEMGDVDQFPPPETWGSL
partner: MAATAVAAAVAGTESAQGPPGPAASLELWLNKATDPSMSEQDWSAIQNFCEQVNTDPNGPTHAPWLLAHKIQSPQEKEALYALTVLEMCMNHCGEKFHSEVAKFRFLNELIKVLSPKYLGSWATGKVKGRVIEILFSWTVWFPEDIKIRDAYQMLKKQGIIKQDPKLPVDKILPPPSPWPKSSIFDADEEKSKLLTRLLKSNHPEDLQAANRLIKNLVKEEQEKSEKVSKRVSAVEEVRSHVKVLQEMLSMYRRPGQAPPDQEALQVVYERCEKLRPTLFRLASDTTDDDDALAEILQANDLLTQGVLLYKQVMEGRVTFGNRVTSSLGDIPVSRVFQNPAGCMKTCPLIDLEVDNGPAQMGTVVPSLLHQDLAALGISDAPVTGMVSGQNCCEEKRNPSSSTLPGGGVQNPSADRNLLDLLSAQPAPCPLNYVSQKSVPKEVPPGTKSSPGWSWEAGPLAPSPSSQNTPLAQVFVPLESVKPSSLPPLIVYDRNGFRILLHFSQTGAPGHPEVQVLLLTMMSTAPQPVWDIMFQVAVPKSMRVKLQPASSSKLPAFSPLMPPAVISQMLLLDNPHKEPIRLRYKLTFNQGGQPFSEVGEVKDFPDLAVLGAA

Variants of: B1
Conditions: with gga2_human GGA2, Q9UJY4

effect of a mutation on the interaction	Variant
with no effect	D358A

— IntAct's records for PubMed 14638859
